# Measurements taken from patent US20140186363A1 (UNIVERSITY OF ZURICH, published 2014).
# T1: MAGEA3 peptide no 6
# T1 construct: also called MAGEA3 aa 51-70
# T1 peptide: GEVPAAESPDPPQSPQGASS
# T2: MAGEA3 peptide no 27
# T2 construct: also called MAGEA3 aa 261-280
# T2 peptide: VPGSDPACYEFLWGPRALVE
# T3: MAGEA3 peptide no 10
# T3 construct: also called MAGEA3 aa 91-110
# T3 peptide: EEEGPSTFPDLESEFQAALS
# T4: MAGEA3 peptide no 28
# T4 construct: also called MAGEA3 aa 271-290
# T4 peptide: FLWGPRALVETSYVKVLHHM
# T5: MAGEA3 peptide no 18
# T5 construct: also called MAGEA3 aa 171-190
# T5 peptide: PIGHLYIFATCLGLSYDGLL
# T6: MAGEA3 peptide no 14
# T6 construct: also called MAGEA3 aa 131-150
# T6 peptide: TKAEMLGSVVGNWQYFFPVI
# T7: MAGEA3 peptide no 22
# T7 construct: also called MAGEA3 aa 211-230
# T7 peptide: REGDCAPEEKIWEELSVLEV
# T8: MAGEA3 peptide no 15
# T8 construct: also called MAGEA3 aa 141-160
# T8 peptide: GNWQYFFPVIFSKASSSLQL
# T9: MAGEA3 peptide no 20
# T9 construct: also called MAGEA3 aa 191-210
# T9 peptide: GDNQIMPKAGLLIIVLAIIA
# T10: MAGEA3 peptide no 12
# T10 construct: also called MAGEA3 aa 111-130
# T10 peptide: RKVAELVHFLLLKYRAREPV
# T11: MAGEA3 peptide no 17
# T11 construct: also called MAGEA3 aa 161-180
# T11 peptide: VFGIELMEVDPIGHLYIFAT
# T12: MAGEA3 peptide no 25
# T12 construct: also called MAGEA3 aa 241-260
# T12 peptide: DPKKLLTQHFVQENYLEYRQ
# T13: MAGEA3 peptide no 29
# T13 construct: also called MAGEA3 aa 281-300
# T13 peptide: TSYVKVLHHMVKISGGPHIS
# T14: MAGEA3 peptide no 19
# T14 construct: also called MAGEA3 aa 181-200
# T14 peptide: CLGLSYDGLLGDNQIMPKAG
# T15: MAGEA3 peptide no 30
# T15 construct: also called MAGEA3 aa 291-310
# T15 peptide: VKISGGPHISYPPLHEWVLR
# T16: MAGEA3 peptide no 21
# T16 construct: also called MAGEA3 aa 201-220
# T16 peptide: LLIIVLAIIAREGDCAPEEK
# T17: MAGEA3 peptide no 3
# T17 construct: also called MAGEA3 aa 21-40
# T17 peptide: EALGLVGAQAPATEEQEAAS
# T18: MAGEA3 peptide no 11
# T18 construct: also called MAGEA3 aa 101-120
# T18 peptide: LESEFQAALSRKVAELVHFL
# T19: MAGEA3 peptide no 1
# T19 construct: also called MAGEA3 aa 1-20
# T19 peptide: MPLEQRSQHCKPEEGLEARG
# T20: MAGEA3 peptide no 13
# T20 construct: also called MAGEA3 aa 121-140
# T20 peptide: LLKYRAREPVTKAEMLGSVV
# T21: MAGEA3 peptide no 5
# T21 construct: also called MAGEA3 aa 41-60
# T21 peptide: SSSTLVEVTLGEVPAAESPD
# T22: MAGEA3 peptide no 9
# T22 construct: also called MAGEA3 aa 81-100
# T22 peptide: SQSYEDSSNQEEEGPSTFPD
# T23: MAGEA3 peptide no 2
# T23 construct: also called MAGEA3 aa 11-30
# T23 peptide: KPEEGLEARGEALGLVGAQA
# T24: MAGEA3 peptide no 26
# T24 construct: also called MAGEA3 aa 251-270
# T24 peptide: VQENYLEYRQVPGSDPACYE
# T25: MAGEA4 (UniProt P43358 1-317, limits assumed)
# T25 construct: also called recombinant MAGEA4-protein; CT1.4
# T25 sequence (looked up): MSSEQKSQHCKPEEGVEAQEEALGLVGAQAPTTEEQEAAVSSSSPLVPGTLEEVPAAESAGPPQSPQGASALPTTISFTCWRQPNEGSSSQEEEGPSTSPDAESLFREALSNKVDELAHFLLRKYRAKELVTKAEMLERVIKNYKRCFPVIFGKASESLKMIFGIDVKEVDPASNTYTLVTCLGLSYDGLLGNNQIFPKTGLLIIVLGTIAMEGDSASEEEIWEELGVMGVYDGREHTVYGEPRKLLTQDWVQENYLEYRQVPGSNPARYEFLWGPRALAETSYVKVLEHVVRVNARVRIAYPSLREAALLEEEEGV
# T26: MAGEA3 peptide no 7
# T26 construct: also called MAGEA3 aa 61-80
# T26 peptide: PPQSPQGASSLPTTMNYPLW
# T27: MAGEA3 peptide no 24
# T27 construct: also called MAGEA3 aa 231-250
# T27 peptide: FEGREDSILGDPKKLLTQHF
# T28: MAGEA3 peptide no 8
# T28 construct: also called MAGEA3 aa 71-90
# T28 peptide: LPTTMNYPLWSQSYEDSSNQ
# B1: 122G3 (antibody, V domains shown)
# VH: QVQLVQSGAEVKKPGASVKVSCKASGYTFTNYAIHWVRQAPGQRLEWMGWINAGKGNTKYSQKFQGRVTITRDTSADTTYMELSSLRSEDTAVYFCAQAGLSSGLYRDYWGQGTPVTVSS
# VL: EIVMTQSPATLSVSPGERATLSCRASQSVSSDLAWYQQKRGQAPRLLIYGASTRATGIPARFSGSGSGTEFTLTISSLQSEDFAVYWCQQYNDWPLTFGGGTKVEIN
# notes: Patient-derived human antibody made recombinantly; also called human monoclonal antibody 122G3
# What was measured:
# MAGEA3 peptide no 6 = target: T1, MAGEA3 peptide no 6; assay: peptide ELISA (coated 20mer)
# Protocol: (§1) 20mer peptides spanning the entire MAGEA3 protein with 10 aa overlaps shared by each adjacent peptide (Peptides&Elephants, Nuthetal, Germany) were used to coat Maxisorp ELISA plates (Nunc, Rochester, N.Y.). As control a 20mer peptide representing amino acids 40-21 from the NY-ESO-1 protein was used (rev). The numbering of amino acids of MAGEA3 is based on SEQ ID No:41.
# (§2) Human recombinant antibody was used at a concentration of 1 μg/ml. Bound human antibody was detected using horseradish peroxidase-conjugated goat anti-human IgG Fc-gamma specific antibodies (Jackson ImmunoResearch, Europe Ltd., Cambridgeshire, UK).
# MAGEA3 peptide no 27 = target: T2, MAGEA3 peptide no 27; assay: peptide ELISA (coated 20mer)
# Protocol: as §1, §2
# MAGEA3 peptide no 10 = target: T3, MAGEA3 peptide no 10; assay: peptide ELISA (coated 20mer)
# Protocol: as §1, §2
# MAGEA3 peptide no 28 = target: T4, MAGEA3 peptide no 28; assay: peptide ELISA (coated 20mer)
# Protocol: as §1, §2
# MAGEA3 peptide no 18 = target: T5, MAGEA3 peptide no 18; assay: peptide ELISA (coated 20mer)
# Protocol: as §1, §2
# MAGEA3 peptide no 14 = target: T6, MAGEA3 peptide no 14; assay: peptide ELISA (coated 20mer)
# Protocol: as §1, §2
# MAGEA3 peptide no 22 = target: T7, MAGEA3 peptide no 22; assay: peptide ELISA (coated 20mer)
# Protocol: as §1, §2
# MAGEA3 peptide no 15 = target: T8, MAGEA3 peptide no 15; assay: peptide ELISA (coated 20mer)
# Protocol: as §1, §2
# MAGEA3 peptide no 20 = target: T9, MAGEA3 peptide no 20; assay: peptide ELISA (coated 20mer)
# Protocol: as §1, §2
# MAGEA3 peptide no 12 = target: T10, MAGEA3 peptide no 12; assay: peptide ELISA (coated 20mer)
# Protocol: as §1, §2
# MAGEA3 peptide no 17 = target: T11, MAGEA3 peptide no 17; assay: peptide ELISA (coated 20mer)
# Protocol: as §1, §2
# MAGEA3 peptide no 25 = target: T12, MAGEA3 peptide no 25; assay: peptide ELISA (coated 20mer)
# Protocol: as §1, §2
# MAGEA3 peptide no 29 = target: T13, MAGEA3 peptide no 29; assay: peptide ELISA (coated 20mer)
# Protocol: as §1, §2
# MAGEA3 peptide no 19 = target: T14, MAGEA3 peptide no 19; assay: peptide ELISA (coated 20mer)
# Protocol: as §1, §2
# MAGEA3 peptide no 30 = target: T15, MAGEA3 peptide no 30; assay: peptide ELISA (coated 20mer)
# Protocol: as §1, §2
# MAGEA3 peptide no 21 = target: T16, MAGEA3 peptide no 21; assay: peptide ELISA (coated 20mer)
# Protocol: as §1, §2
# MAGEA3 peptide no 3 = target: T17, MAGEA3 peptide no 3; assay: peptide ELISA (coated 20mer)
# Protocol: as §1, §2
# MAGEA3 peptide no 11 = target: T18, MAGEA3 peptide no 11; assay: peptide ELISA (coated 20mer)
# Protocol: as §1, §2
# MAGEA3 peptide no 1 = target: T19, MAGEA3 peptide no 1; assay: peptide ELISA (coated 20mer)
# Protocol: as §1, §2
# MAGEA3 peptide no 13 = target: T20, MAGEA3 peptide no 13; assay: peptide ELISA (coated 20mer)
# Protocol: as §1, §2
# MAGEA3 peptide no 5 = target: T21, MAGEA3 peptide no 5; assay: peptide ELISA (coated 20mer)
# Protocol: as §1, §2
# MAGEA3 peptide no 9 = target: T22, MAGEA3 peptide no 9; assay: peptide ELISA (coated 20mer)
# Protocol: as §1, §2
# MAGEA3 peptide no 2 = target: T23, MAGEA3 peptide no 2; assay: peptide ELISA (coated 20mer)
# Protocol: as §1, §2
# MAGEA3 peptide no 26 = target: T24, MAGEA3 peptide no 26; assay: peptide ELISA (coated 20mer)
# Protocol: as §1, §2
# MAGEA3 = target: T29, MAGEA3 (human, UniProt P43357 1-314); assay: ELISA, plate coated with recombinant MAGEA3, serial dilution of antibody
# T29 construct: also called recombinant MAGEA3; MAGEA3-protein
# MAGEA4 = target: T25, MAGEA4; assay: Western blot of recombinant protein, anti-human IgG-HRP
# Protocol: Recombinant MAGEA3- and recombinant MAGEA4-protein were separated in SDS-PAGE and blotted onto membranes. Membranes were incubated with human antibodies 122G3 or 32H2. Binding of human antibodies to proteins on the membrane was evaluated using an HRP-labeled goat anti human IgG (Jackson Immunoresearch, Milan Analytica AG, Rheinfelden, Switzerland). The results are depicted in FIG. 3.
# MAGEA3 peptide no 7 = target: T26, MAGEA3 peptide no 7; assay: ELISA on plate-coated 20mer peptide, antibody at 1 µg/ml, anti-human IgG Fc-HRP
# Protocol: as §1, §2
# MAGEA3 peptide no 24 = target: T27, MAGEA3 peptide no 24; assay: as above
# Protocol: as §1, §2
# MAGEA3 peptide no 8 = target: T28, MAGEA3 peptide no 8; assay: as above
# Protocol: as §1, §2
binder,measurement,setting,value
B1,binding result,MAGEA3 peptide no 6,no binding (tested: 1 µg/ml)
same,binding result,MAGEA3 peptide no 27,no binding (tested: 1 µg/ml)
same,binding result,MAGEA3 peptide no 10,no binding (tested: 1 µg/ml)
same,binding result,MAGEA3 peptide no 28,no binding (tested: 1 µg/ml)
same,binding result,MAGEA3 peptide no 18,no binding (tested: 1 µg/ml)
same,binding result,MAGEA3 peptide no 14,no binding (tested: 1 µg/ml)
same,binding result,MAGEA3 peptide no 22,no binding (tested: 1 µg/ml)
same,binding result,MAGEA3 peptide no 15,no binding (tested: 1 µg/ml)
same,binding result,MAGEA3 peptide no 20,no binding (tested: 1 µg/ml)
same,binding result,MAGEA3 peptide no 12,no binding (tested: 1 µg/ml)
same,binding result,MAGEA3 peptide no 17,no binding (tested: 1 µg/ml)
same,binding result,MAGEA3 peptide no 25,no binding (tested: 1 µg/ml)
same,binding result,MAGEA3 peptide no 29,no binding (tested: 1 µg/ml)
same,binding result,MAGEA3 peptide no 19,no binding (tested: 1 µg/ml)
same,binding result,MAGEA3 peptide no 30,no binding (tested: 1 µg/ml)
same,binding result,MAGEA3 peptide no 21,no binding (tested: 1 µg/ml)
same,binding result,MAGEA3 peptide no 3,no binding (tested: 1 µg/ml)
same,binding result,MAGEA3 peptide no 11,no binding (tested: 1 µg/ml)
same,binding result,MAGEA3 peptide no 1,no binding (tested: 1 µg/ml)
same,binding result,MAGEA3 peptide no 13,no binding (tested: 1 µg/ml)
same,binding result,MAGEA3 peptide no 5,no binding (tested: 1 µg/ml)
same,binding result,MAGEA3 peptide no 9,no binding (tested: 1 µg/ml)
same,binding result,MAGEA3 peptide no 2,no binding (tested: 1 µg/ml)
same,binding result,MAGEA3 peptide no 26,no binding (tested: 1 µg/ml)
same,EC50,MAGEA3,0.023 nM
same,EC50 (read off the curve),MAGEA3,~20 pM
same,binding result,MAGEA4,no binding
same,binding result,MAGEA3 peptide no 7,binds
same,binding result,MAGEA3 peptide no 24,binds
same,binding result,MAGEA3 peptide no 8,binds
